Assay [1] addresses GPIb (residues 268-285) derived peptide, sulfated at 3rd tyrosine position. Description: peptide ELISA, 0.5 µg/well scFv.
The target of assay [2] is PSGL-1 (residues 42-58) derived peptide, sulfated at 1st tyrosine position. Put plainly: peptide ELISA, 0.5 µg/well scFv.
Assay [3] has as its target PSGL-1 (residues 42-58) derived peptide, sulfated at 2nd tyrosine position. Description: peptide ELISA, 0.5 µg/well scFv.
Assay [4] has as its target PSGL-1 (residues 42-58) derived peptide, non-sulfated. Put plainly: peptide ELISA, 0.5 µg/well scFv.
Assay [5] deals with GPIb (residues 268-285) derived peptide, non-sulfated. Description: peptide ELISA, 0.5 µg/well scFv.
Assay [6] addresses PSGL-1 (residues 42-58) derived peptide, sulfated at 3rd tyrosine position. Put plainly: peptide ELISA, 0.5 µg/well scFv.
In assay [7] the target is GPIb (residues 268-285) derived peptide, sulfated at 1st tyrosine position. Put plainly: peptide ELISA, 0.5 µg/well scFv.
Assay [8] deals with CCR5 (residues 1-18) derived peptide, sulfated at 1st tyrosine position. Description: peptide ELISA, 0.5 µg/well scFv.
Assay [9] has as its target CCR5 (residues 1-18) derived peptide, sulfated at 3rd tyrosine position. Put plainly: peptide ELISA, 0.5 µg/well scFv.
Assay [10] has as its target CCR5 (residues 1-18) derived peptide, sulfated at 2nd tyrosine position. Put plainly: peptide ELISA, 0.5 µg/well scFv.
The target of assay [11] is CCR5 (residues 1-18) derived peptide, non-sulfated. Put plainly: peptide ELISA, 0.5 µg/well scFv.
Assay [12] concerns the target GPIb on human platelets (human) (UniProt P07359). Put plainly: FACS on human platelets.
In assay [13] the target is GPIb (residues 268-285) derived peptide, sulfated at 1st tyrosine position. Put plainly: peptide ELISA, 0.5 µg/well scFv. This is another data set of the same source.
For assay [14], the target named is PSGL-1 (residues 42-58) derived peptide, sulfated at 3rd tyrosine position. Description: peptide ELISA, 0.5 µg/well scFv. The source holds these as a separate data set.
Assay [15] deals with CCR5 (residues 1-18) derived peptide, sulfated at 2nd tyrosine position. Description: peptide ELISA, 0.5 µg/well scFv. The source holds these as a separate data set.
The target of assay [16] is GPIb (residues 268-285) derived peptide, sulfated at 3rd tyrosine position. Put plainly: peptide ELISA, 0.5 µg/well scFv. The source holds these as a separate data set.

The values below come from US20080274100A1.

Read-outs that look alike come from different tables or passages of the source.

Sequence of GPIb on human platelets (human) (P07359 17-652): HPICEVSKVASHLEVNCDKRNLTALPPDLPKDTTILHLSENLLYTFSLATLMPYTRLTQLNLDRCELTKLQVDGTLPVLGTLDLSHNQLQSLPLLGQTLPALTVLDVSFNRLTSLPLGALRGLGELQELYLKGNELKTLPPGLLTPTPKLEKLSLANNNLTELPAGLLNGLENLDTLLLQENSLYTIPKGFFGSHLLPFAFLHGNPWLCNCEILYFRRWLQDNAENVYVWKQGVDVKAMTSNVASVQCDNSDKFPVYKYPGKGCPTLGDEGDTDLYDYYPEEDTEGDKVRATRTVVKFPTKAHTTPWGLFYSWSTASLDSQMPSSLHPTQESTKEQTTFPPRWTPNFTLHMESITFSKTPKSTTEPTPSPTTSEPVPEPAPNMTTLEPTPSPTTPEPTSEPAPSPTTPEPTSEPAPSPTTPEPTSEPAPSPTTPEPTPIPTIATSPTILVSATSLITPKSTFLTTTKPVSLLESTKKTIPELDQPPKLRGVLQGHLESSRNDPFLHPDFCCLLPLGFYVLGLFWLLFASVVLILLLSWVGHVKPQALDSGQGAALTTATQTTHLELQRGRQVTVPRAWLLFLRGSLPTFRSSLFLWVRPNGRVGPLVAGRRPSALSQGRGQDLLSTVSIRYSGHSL

B1: S1 scFv (scFv)
scFv: EVQLVESGGGVVRPGGSLRLSCAASGFTFDLNPKVKHMWVRQAPGKGLEWVSGINWNGGSTGYADSVKGRFTISRDNAKNSLYLQMNSLRAEDTAVYYCARLRPPFLWGQGTLVTVSRGGGGSGGGGSGGGGSSELTQDPAVSVALGQTVRITCQGDSLRSYYASWYQQKPGQAPVLVIYGKNNRPSGIPDRFSGSSSGNTASLTITGAQAEDEADYYCNSRDSSGNHVVFGGGTKLTVLGAAAEQKLISEEDLNGAA
As to B1, the ELISA read-out at 450 nm is 0.15 OD 450 nm in assay [1]; 0.1 OD 450 nm in assay [2]; 0.08 OD 450 nm in assay [3]; 0.07 OD 450 nm in assay [4]; 0.07 OD 450 nm in [5]; 0.8 OD 450 nm in assay [6]. In addition, the ELISA read-out at 450 nm in assay [7] came out at 0.8 OD 450 nm; in assay [8], 0.07 OD 450 nm; in [9] it was 0.07 OD 450 nm; in assay [10] it was 0.3 OD 450 nm; in [11], 0.06 OD 450 nm. In assay [12], the fold binding capacity relative to Y1 worked out at 25 fold.

B2: S11 scFv (scFv)
scFv: EVQLVESGGGVVRPGGSLRLSCAASGFTFDLNPKVKHMWVRQAPGKGLEWVSGINWNGGSTGYADSVKGRFTISRDNAKNSLYLQMNSLRAEDTAVYYCARLRYPFFWGQGTLVTVSRGGGGSGGGGSGGGGSSELTQDPAVSVALGQTVRITCQGDSLRSYYASWYQQKPGQAPVLVIYGKNNRPSGIPDRFSGSSSGNTASLTITGAQAEDEADYYCNSRDSSGNHVVFGGGTKLTVLGAAAEQKLISEEDLNGAA
In the case of B2, the ELISA read-out at 450 nm in assay [4] is 0.01 OD 450 nm; in assay [5], 0.1 OD 450 nm; in assay [11], 0.08 OD 450 nm; in assay [13] it was 0.6 OD 450 nm; in assay [14], 0.7 OD 450 nm; in assay [15], 0.7 OD 450 nm. For the same molecule, the ELISA read-out at 450 nm in [16] came to 0.3 OD 450 nm.
